The values that follow come from US20160280792A1 (Kyowa Kirin, published 2016).

The term Kd denotes the equilibrium constant for the complex coming apart. A lower Kd goes with a tighter complex.

In assay [1] the target is T1, IL-3Rα/GM-CSFRα chimeric protein, A domain of IL-3Rα replaced by that of GM-CSFRα, on HEK293T cells (human, UniProt P15509 23-114).
T1 construct: domain: A domain; The KpnI site (GGTACC) at the junction encodes an extra Gly-Thr; also called A domain substitution
T1 sequence: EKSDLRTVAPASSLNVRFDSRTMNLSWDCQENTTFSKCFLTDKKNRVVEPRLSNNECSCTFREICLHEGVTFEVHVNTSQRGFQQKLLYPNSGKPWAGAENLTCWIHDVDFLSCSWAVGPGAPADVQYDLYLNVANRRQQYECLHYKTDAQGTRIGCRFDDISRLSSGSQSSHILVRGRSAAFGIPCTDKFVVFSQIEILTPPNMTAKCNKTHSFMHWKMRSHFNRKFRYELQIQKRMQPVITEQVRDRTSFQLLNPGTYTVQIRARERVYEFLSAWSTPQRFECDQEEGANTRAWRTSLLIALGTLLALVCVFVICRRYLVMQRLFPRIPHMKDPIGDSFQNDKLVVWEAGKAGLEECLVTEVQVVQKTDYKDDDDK
In words: flow cytometry, labelled antibody at 1 µg/ml, HEK293T cells expressing the construct. How it is done:
HEK293T cell (ATCC CRL 1268) was used for the preparation of the IL-3Rα/GM-CSFRα chimeric protein expression cell. Using 293Fectin (Invitrogen), the plasmid DNA obtained in the above was introduced as an expression vector into the HEK293T. The HEK293T to which the expression vector was introduced was cultured using a shaker under conditions of 5% CO₂ and 37° C. after 2 days of the introduction, the […] was used for in the flow cytometry analysis.
From 100,000 to 1,000,000 cells of the chimeric protein expression cell were allowed to react for 30 minutes on ice with at a concentration of 1 μg/ml with an AlexaFlour488-labeled human antibody or a commercially available FITC-labeled anti-IL-3Rα mouse antibody (7G3 or 9F5: both from BD Biosciences, 6H6: Acris Antibodies, AC145: Milteny Biotech, 107D2.08: Dendritics). A staining medium (Dulbecco's PBS supplemented with 2% fetal bovine serum, 2 mM EDTA and 0.05% NaN₃) was used for the dilution of antibodies and cells. Next, the cells reacted with antibodies were washed three times with the staining medium and whether the labeled antibody bound to the cell was confirmed by flow cytometry.
Background: In flow cytometry, cells or beads pass a laser one at a time.

The target of assay [2] is T2, IL-3Rα/GM-CSFRα chimeric protein, region 1 (55-DADYSMP-61) of IL-3Rα replaced by GM-CSFRα sequence, on … (human, UniProt P26951 19-378).
T2 construct: Built on IL-3RA-FLAG/pEGFP-N1; they are my translation of the primers; also called Region 1 (A)
T2 chain: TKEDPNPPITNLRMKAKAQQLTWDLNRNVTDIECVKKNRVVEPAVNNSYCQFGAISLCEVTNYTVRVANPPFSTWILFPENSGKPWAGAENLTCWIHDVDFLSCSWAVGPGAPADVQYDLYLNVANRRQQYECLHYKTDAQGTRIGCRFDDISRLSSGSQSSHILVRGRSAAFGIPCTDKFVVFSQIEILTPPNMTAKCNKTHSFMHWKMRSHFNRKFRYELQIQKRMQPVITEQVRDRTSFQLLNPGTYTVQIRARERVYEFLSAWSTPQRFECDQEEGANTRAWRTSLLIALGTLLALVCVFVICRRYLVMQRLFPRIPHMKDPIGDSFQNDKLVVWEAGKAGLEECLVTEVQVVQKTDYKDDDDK
Described as above.

The target in assay [3] is T3, soluble form of human IL-3Rα protein (extracellular region with C-terminal FLAG tag) (human, UniProt P26951 19-305).
T3 construct: Made in CHOras1 cells, purified on anti-FLAG gel; also called soluble form of IL-3Rα protein; soluble form of human IL-3Rα extracellular region
T3 sequence: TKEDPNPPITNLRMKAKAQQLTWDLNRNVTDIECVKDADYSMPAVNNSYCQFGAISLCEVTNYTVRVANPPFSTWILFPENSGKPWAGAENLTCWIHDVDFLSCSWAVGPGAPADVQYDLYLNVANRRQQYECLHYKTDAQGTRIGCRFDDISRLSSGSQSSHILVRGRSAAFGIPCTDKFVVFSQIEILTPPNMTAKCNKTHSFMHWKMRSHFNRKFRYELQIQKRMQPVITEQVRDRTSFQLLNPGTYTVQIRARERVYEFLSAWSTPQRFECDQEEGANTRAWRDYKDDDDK
Description: SPR (Biacore 2000): antibody captured on anti-mouse antibody CM5 chip, soluble IL-3Rα as analyte, 1:1 Langmuir fit. On the procedure:
Specifically, CM5 (research grade) was used for a sensor tip (each GE). Firstly, the CM5 tip was activated by applying an equivalent mixture of 400 mM EDC (N-ethyl-N′-(3-dimethylaminopropyl)carbodiimidehydrochloride) and 100 mM NHS (N-hydroxysuccinimide) to the CM5 tip. Next, an antibody to the human antibody attached to the Human Antibody Capture Kit (GE) (hereinafter, referred to as anti-human antibody antibody) was diluted with the solution attached to the kit and applied thereto, thereby immobilizing the required amount of the anti-human antibody antibody to the CM5 tip. Regarding the mouse antibody to be used as a control, an antibody to the mouse antibody attached to the Mouse Antibody Capture Kit (GE) (hereinafter, referred to as anti-mouse antibody antibody) was diluted with the solution attached to the kit and applied thereto, thereby immobilizing a necessary amount thereof to the CM5 tip. […]
In the analysis, Biaevaluation software (GE) was used and Biaevaluation Software Handbook was referred. Specifically, by carrying out simultaneous analysis of kinetics analysis, employing basically the 1:1 Langmuir binding reaction model and fitting, association rate constant (Ka) and dissociation rate constant (Kd) were calculated, and the value of dissociation constant KD was calculated by the calculation of Kd/Ka.
(In general: Surface plasmon resonance follows binding to a sensor surface in real time, without labels.)

B1: anti-human IL-3Rα mouse antibody 7G3 (antibody, V domains shown)
VH: EVQLQQSGPELVKPGASVKMSCKASGYTFTDYYMKWVKQSHGKSLEWIGDIIPSNGATFYNQKFKGKATLTVDRSSSTAYMHLNSLTSEDSAVYYCTRSHLLRASWFAYWGQGTLVTVSA
VL: DFVMTQSPSSLTVTAGEKVTMSCKSSQSLLNSGNQKNYLTWYLQKPGQPPKLLIYWASTRESGVPDRFTGSGSGTDFTLTISSVQAEDLAVYYCQNDYSYPYTFGGGTKLEIK
notes: Mouse antibody; the material used in flow cytometry was bought (BD Biosciences, FITC-labelled); Light chain start see note of m7; also called 7G3 (Mouse antibodies); FITC-labeled 7G3 (BD Biosciences)
For the molecule B1, the binding result in assay [1] and in assay [2] was “no binding (tested: 1 µg/ml)” each time. In assay [3], binding was characterised by a dissociation constant (Kd) of 0.566 nM.
